# From patent publication US6359194 (Takeda / Millennium, dated 2002)
# B1: GAL4 DNA-binding domain fusion to rchd534 (other, UniProt P04386 1-147, looked up)
# chain: MKLLSSIEQACDICRLKKLKCSKEKPKCAKCLKNNWECRYSPKTKRSPLTRAHLTEVESRLERLEQLFLLIFPREDLDMILKMDSLQDIKALLTGLFVQDNVNKDAVTDRLASVETDMPLTLRQHRISATSSSEESSNKGQRQLTVSMSRMGKPIETQKSPPPPYSRLSPRDEYKPLDLSDSTLSYTETEATNSLITAPGEFSDASMSPDATKPSHWCSVAYWEHRTRVGRLYAVYDQAVSIFYDLPQGSGFCLGQLNLEQRSESVRRTRSKIGFGILLSKEPDGVWAYNRGEHPIFVNSPTLDAPGGRALVVRKVPPGYSIKVFDFERSGLQHAPEPDAADGPYDPNSVRISFAKGWGPCYSRQFITSCPCWLEILLNNPR
# notes: Yeast two-hybrid bait; also called rchd534 bait protein
# B2: GAL4 DNA-binding domain-fchd540 fusion (other, UniProt P04386 1-147, looked up)
# chain: MKLLSSIEQACDICRLKKLKCSKEKPKCAKCLKNNWECRYSPKTKRSPLTRAHLTEVESRLERLEQLFLLIFPREDLDMILKMDSLQDIKALLTGLFVQDNVNKDAVTDRLASVETDMPLTLRQHRISATSSSEESSNKGQRQLTVSMFRTKRSALVRRLWRSRAPGGEDEEEGAGGGGGGGELRGEGATDSRAHGAGGGGPGRAGCCLGKAVRGAKGHHHPHPPAAGAGAAGGAEADLKALTHSVLKKLKERQLELLLQAVESRGGTRTACLLLPGRLDCRLGPGAPAGAQPAQPPSSYSLPLLLCKVFRWPDLRHSSEVKRLCCCESYGKINPELVCCNPHHLSRLCELESPPPPYSRYPMDFLKPTADCPDAVPSSAETGGTNYLAPGGLSDSQLLLEPGDRSHWCVVAYWEEKTRVGRLYCVQEPSLDIFYDLPQGNGFCLGQLNSDNKSQLVQKVRSKIGCGIQLTREVDGVWVYNRSSYPIFIKSATLDNPDSRTLLVHKVFPGFSIKAFDYEKAYSLQRPNDHEFMQQPWTGFTVQISFVKGWGQCYTRQFISSCPCWLEVIFNSR
# notes: Yeast two-hybrid bait; also called fchd540 bait protein; pGBT9-fchd540
# B3: GAL4 DNA-binding domain fusion to Drosophila MAD (other, UniProt P04386 1-147, looked up)
# chain: MKLLSSIEQACDICRLKKLKCSKEKPKCAKCLKNNWECRYSPKTKRSPLTRAHLTEVESRLERLEQLFLLIFPREDLDMILKMDSLQDIKALLTGLFVQDNVNKDAVTDRLASVETDMPLTLRQHRISATSSSEESSNKGQRQLTVSMDTDDVESNTSSAMSTLGSLFSFTSPAVKKLLGWKQGDEEEKWAEKAVDSLVKKLKKRKGAIEELERALSCPGQPSKCVTIPRSLDGRLQVSHRKGLPHVIYCRVWRWPDLQSHHELKPLELCQYPFSAKQKEVCINPYHYKRVESPVLPPVLVPRHSEFAPGHSMLQFNHVAEPSMPHNVSYSNSGFNSHSLSTSNTSVGSPSSVNSNPNSPYDSLAGTPPPAYSPSEDGNSNNPNDGGQLLDAQMGDVAQVSYSEPAFWASIAYYELNCRVGEVFHCNNNSVIVDGFTNPSNNSDRCCLGQLSNVNRNSTIENTRRHIGKGVHLYYVTGEVYAECLSDSAIFVQSRNCNYHHGFHPSTVCKIPPGCSLKIFNNQEFAQLLSQSVNNGFEAVYELTKMCTIRMSFVKGWGAEYHRQDVTSTPCWIEIHLHGPLQWLDKVLTQMGSPHNAISSVS
# notes: Yeast two-hybrid bait; also called Dros; MAD; MAD bait protein
# B4: GAL4 activation domain fusion to SV40 (other)
# chain: PTYGTDEWEQWWNAFNEENLFCSEEMPSSDDEATADSQHSTPPKKKRKVEDPKDFPSELLSFLSHAVFSNRTLACFAIYTTKEKAALLYKKIMEKYSVTFISRHNSYNHNILFFLTPHRHRVSAINNYAQKLCTFSFLICKGVNKEYLMYSALTRDPFSVIEESLPGGLKEHDFNPEEAEETKQVSWKLVTEYAMETKCDDVLLLLGMYLEFQYSFEMCLKCIKKEQPSHYKYHEKHYANAAIFADSKNQKTICQQAVDTVLAKKRVDSLQLTREQMLTNRFNDLLDRMDIMFGSTGSADIEEWMAGVAWLHCLLPKMDSVVYDFLKCMVYNIPKKRYWLFKGPIDSGKTTLAAALLELCGGKALNVNLPLDRLNFELGVAIDQFLVVFEDVKGTGGESRDLPSGQGINNLDNLRDYLDGSVKVNLEKKHLNKRTQIFPPGIVTMNEYSVPKTLQARFVKQIDFRPKDYLKHCLERSEFLLEKRIIQSGIALLLMLIWYRPVAEFAQSIQSRIVEWKERLDKEFSLSVYQKMKFNVAMGIGVLDWLRNSDDDDEDSQENADKNEDGGEKNMEDSGHETGIDSQSQGSFQAPQSSQSVHDHNQPYHICRGFTCFKKPPTPPPEPET
# notes: Two-hybrid control
# Assays:
# [1] = molecular target: B4; assay: yeast two-hybrid mating assay (HIS3 and lacZ reporters)
# Text: (§1) Yeast expression plasmids encoding the GAL4 DNA-binding domain either alone or fused in frame to fchd540, rchd534, Drosophilia MAD, DPC4, or p53 were transformed into MATa two-hybrid screening strain HF7c. Yeast expression plasmnids encoding the GAL4 transcriptional activation domain alone and GAL4 activation domain fusions to rchd534 and SV40 were transformed into MATα two-hybrid screening strain Y1 87. p53 and SV40 interact with each other and should not interact with the experimental proteins. The HF7c transformants were propagated as stripes on semisolid synthetic complete medium lacking L-tryptophan and the Y187 transformants were grown as stripes on semisolid synthetic complete medium lacking L-leucine. Both sets of stripes were replica plated in the form of a grid onto a single rich YPAD plate and the haploid strains of opposite mating types were allowed to mate overnight at 30° C. The yeast strains on the mating plate were then replica plated to a synthetic complete plate lacking L-leucine and L-tryptophan to select for diploids and incubated at 30° C. overnight. Diploid strains on the synthetic complete plate lacking L-leucine and L-tryptophan were replica plated to a synthetic complete plate lacking L-leucine, L-tryptophan, and L-histidine to assay HIS3 expression and a paper filter on a synthetic complete plate lacking L-leucine and L-tryptophan. The next day the paper filter was subjected to the paper filter beta-galactosidase assay to measure expression of the lacZ reporter gene. HIS3 expression was scored after 3 days of growth at 30° C.
# (§2) It was confirmed that these rchd534 cDNAs encode proteins that physically interact specifically with fchd540. Yeast expression plasmids encoding the GAL4 DNA-binding domain either alone or fused in frame to fchd540, rchd534, Drosophila MAD, DPC4, and p53 were transformed into MATa two-hybrid screening strain HF7c. Yeast expression plasmids encoding the GAL4 transcriptional activation domain (GAL4 AD) alone and GAL4 activation domain fusions to tchv03a, tchvR4A and SV40 were transformed into MATα two-hybrid screening strain Y1 87. p53 and SV40 interact with each other and should not interact with the experimental proteins. The HF7c transformants were propagated as stripes on semi-solid synthetic complete medium lacking […].
# [2] = molecular target: B1; assay: as above
# Text: as §1, §2
# [3] = molecular target: B3; assay: as above
# Text: as §1, §2
# [4] = molecular target: T1, GAL4 DNA-binding domain fusion to DPC4 (UniProt P04386 1-147; Q13485 1-552, limits assumed); assay: as above
# T1 construct: Yeast two-hybrid bait; also called DPC4 bait protein
# Text: as §1, §2
# [5] = molecular target: B2; assay: as above
# Text: as §1, §2
# [6] = molecular target: T2, GAL4 DNA-binding domain alone (UniProt P04386 1-147); assay: as above
# T2 construct: Two-hybrid control
# Text: as §1, §2
# [7] = molecular target: T3, fchd540 protein fused to a flag peptide (transfected 293 cells or BAECs) (human, UniProt O15105 1-426); assay: co-immunoprecipitation, BAECs against 293 cells, equal amounts of protein
# T3 construct: Co-immunoprecipitation construct; not shown: flag peptide (different from that on rchd534)
# T3 sequence (looked up): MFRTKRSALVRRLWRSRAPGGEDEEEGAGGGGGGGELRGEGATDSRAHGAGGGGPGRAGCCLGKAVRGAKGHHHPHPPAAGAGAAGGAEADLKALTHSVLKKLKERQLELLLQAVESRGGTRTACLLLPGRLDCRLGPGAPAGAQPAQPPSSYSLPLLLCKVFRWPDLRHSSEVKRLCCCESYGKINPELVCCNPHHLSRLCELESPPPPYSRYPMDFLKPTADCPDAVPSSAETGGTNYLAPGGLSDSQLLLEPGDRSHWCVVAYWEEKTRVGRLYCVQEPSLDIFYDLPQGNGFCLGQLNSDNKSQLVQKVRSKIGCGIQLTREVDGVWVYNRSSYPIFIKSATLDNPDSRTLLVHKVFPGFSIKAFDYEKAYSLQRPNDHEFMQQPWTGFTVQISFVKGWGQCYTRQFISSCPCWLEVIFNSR
# Protocol: The interaction of the rchd534 and fchd540 proteins, observed in yeast cells as described above, was tested in mammalian endothelial cell tissue culture. Either bovine aortic endothelial cells (BAECs) or 293 cells (human embryonic kidney cells, ATCC Accession No. CRL-1573) were transfected with constructs encoding both the rchd534 and fchd540 proteins, each fused to a different flag peptide allowing for specific immunoprecipitation. […] The co-immunoprecipitation of rchd534 and fchd540 further supports that these proteins interact in human cells that are physiologically relevant to cardiovascular disease.
# The ability of the rchd534 and fchd540 proteins to interact with themselves and with other protein members of the TGF-β signalling pathway (MADR1, MADR2, DPC4, TbR1, TSR1, ActR1b, ALK3, ALK6), was tested using this co-inmunoprecipitation method. Each gene was transfected alone and in various combinations with other TGF-β pathway genes in either 293 cells or BAECs. The rchd534 protein formed homodimers in 293 cells and BAECs. […] As mentioned above, the rchd534 and fchd540 proteins formed heterodimers in 293 cells and BAECs. This interaction is about 50 fold stronger in BAECs than 293 cells based on equal amounts of protein.
Binder,binding result [1],binding result [2],binding result [3],binding result [4],further results
B1,no binding,,,,
"tchv03A (GAL4 activation domain fusion to amino acids 17-235 of rchd534) (other, not shown: large carriers, Library clone from the human breast two-hybrid library; also called tchv03A fish protein) PYSRLSPRDEYKPLDLSDSTLSYTETEATNSLITAPGEFSDASMSPDATKPSHWCSVAYWEHRTRVGRLYAVYDQAVSIFYDLPQGSGFCLGQLNLEQRSESVRRTRSKIGFGILLSKEPDGVWAYNRGEHPIFVNSPTLDAPGGRALVVRKVPPGYSIKVFDFERSGLQHAPEPDAADGPYDPNSVRISFAKGWGPCYSRQFITSCPCWLEILLNNPR",,no binding,no binding,no binding,
B2,no binding,,,,
B3,no binding,,,,
"GAL4 transcriptional activation domain alone (other, UniProt P04386 768-881, looked up, Two-hybrid control; also called GAL4 AD alone; GAL4 AD) ANFNQSGNIADSSLSFTFTNSSNGPNLITTQTNSQALSQPIASSNVHDNFMNNEITASKIDDGNNSKPLSPGWTDQTAYNAFGITTGMFNTTTMDDVYNYLFDDEDTPPNPKKE",,no binding,no binding,no binding,binding result [5]: no binding; binding result [6]: no binding
"rchd534 protein fused to a flag peptide (transfected 293 cells or BAECs) (other, human, UniProt O43541-2 1-235, looked up, Co-immunoprecipitation construct; also called Smad6; not shown: flag peptide for immunoprecipitation) MSRMGKPIETQKSPPPPYSRLSPRDEYKPLDLSDSTLSYTETEATNSLITAPGEFSDASMSPDATKPSHWCSVAYWEHRTRVGRLYAVYDQAVSIFYDLPQGSGFCLGQLNLEQRSESVRRTRSKIGFGILLSKEPDGVWAYNRGEHPIFVNSPTLDAPGGRALVVRKVPPGYSIKVFDFERSGLQHAPEPDAADGPYDPNSVRISFAKGWGPCYSRQFITSCPCWLEILLNNPR",,,,,fold stronger interaction in BAECs than in 293 cells [7]: ~50 fold
"GAL4 transcriptional activation domain-rchd534 fusion (other, human, UniProt O43541-2 1-235, looked up, not shown: large carriers, Yeast two-hybrid fish; also called rchd534 fish protein; Smad6) MSRMGKPIETQKSPPPPYSRLSPRDEYKPLDLSDSTLSYTETEATNSLITAPGEFSDASMSPDATKPSHWCSVAYWEHRTRVGRLYAVYDQAVSIFYDLPQGSGFCLGQLNLEQRSESVRRTRSKIGFGILLSKEPDGVWAYNRGEHPIFVNSPTLDAPGGRALVVRKVPPGYSIKVFDFERSGLQHAPEPDAADGPYDPNSVRISFAKGWGPCYSRQFITSCPCWLEILLNNPR",,,no binding,no binding,
"tchvR4A (GAL4 activation domain fusion to amino acids 25-235 of rchd534) (other, not shown: large carriers, Library clone from the human breast two-hybrid library; also called tchvR4A fish protein) DEYKPLDLSDSTLSYTETEATNSLITAPGEFSDASMSPDATKPSHWCSVAYWEHRTRVGRLYAVYDQAVSIFYDLPQGSGFCLGQLNLEQRSESVRRTRSKIGFGILLSKEPDGVWAYNRGEHPIFVNSPTLDAPGGRALVVRKVPPGYSIKVFDFERSGLQHAPEPDAADGPYDPNSVRISFAKGWGPCYSRQFITSCPCWLEILLNNPR",,no binding,no binding,no binding,
B4,,,,no binding,
